Series [1] in a line: Test of solubility of insulin and long-acting insulin conjugate (RP-HPLC against calibration standard curve). In kind it is physicochemical. Conditions: for Measurement value (quantitative value calculated by standard calibration curve): pH 6.0 acetic acid buffer, polysorbate, mannitol, sodium chloride, room temperature, supernatant. An excerpt: A respective calibration standard curve of insulin and the long-acting insulin conjugate was first confirmed by Reverse Phase-High Performance Liquid Chromatography (RP-HPLC), as in FIG. 1.

The conditions of series [2]: pH 5.6.

Like-named read-outs stand apart in the source and are kept apart here. Square brackets hold non-standard residues; d marks the D form. Ends that are not written are not given here. Aib = CC(C)(N)C(=O)O

Take Insulin: in series [1] (FIG. 2, composition of Table 1, pH 6.0), the solubility is 628 µg/mL. Further, the “difference between the theoretical value and the measurement value” in series [1] (dissolved in long-acting insulin conjugate formulation buffer, pH 6.0) was “up to 16 times”. Further, in series [1] (long-acting insulin conjugate formulation buffer, all cases, excluding 0.008 mg/mL), the pellets after centrifugation entry is listed as “pellets were observed”. In series [1] (serial dilution of test material from about 10 mg/mL, pH 6.0), the “point at which completely dissolved without impurities or pellet (minimum quantitative value)” value is recorded as 0.008 mg/mL. The “Measurement value (quantitative value calculated by standard calibration curve)” value is on record as 0.000 mg/mL in series [1] (theoretical quantitative value 0.008 mg/mL); 0.000 mg/mL in series [1] (theoretical quantitative value 0.04 mg/mL); 0.005 mg/mL in series [1] (theoretical quantitative value 0.2 mg/mL); 0.047 mg/mL in series [1] (theoretical quantitative value 1 mg/mL); 0.253 mg/mL in series [1] (theoretical quantitative value 5 mg/mL); 0.628 mg/mL in series [1] (theoretical quantitative value 10 mg/mL).

For “Oxyntomodulin derivative: oxyntomodulin derivative having the amino acid sequence of SEQ ID NO: 27, cysteine residue at position 30 (H[Aib]QGTFTSDYSKYLDEKRAKEFVQWLMNTC)”, in series [2], the “difference between the theoretical value and the measurement value” is reported as “up to 27 times”; the solubility was 188 µg/mL. Moreover, the “point at which completely dissolved without impurities or pellet (minimum quantitative value)” value in series [2] (serial dilution of test material from about 5 mg/mL) is recorded as 0.008 mg/mL.

Source of the values: patent US20230220034A1, “METHOD FOR IMPROVING SOLUBILITY OF PROTEIN AND PEPTIDE BY USING IMMUNOGLOGULIN FC FRAGMENT LINKAGE” (HANMI PHARM. CO., LTD., priority 2014, published 2023).
